Data on 2 molecules can be found in publication PMC6597238, “The GluTR-binding protein is the heme-binding factor for feedback control of glutamyl-tRNA reductase” (eLife, 2019).

Conditions in all cases: both partners purified
Assay [1] concerns the target T1, 6xHIS-GluTR1 (glutamyl-tRNA reductase 1) (Arabidopsis, UniProt P42804 62-543).
T1 construct: glutamyl-tRNA reductase 1 (GluTR1), Arabidopsis, encoded by HEMA1; Czarnecki et al., 2011; Wang et al., 2018; source: E. coli BL21, purified (Ni-NTA)
T1 sequence (looked up): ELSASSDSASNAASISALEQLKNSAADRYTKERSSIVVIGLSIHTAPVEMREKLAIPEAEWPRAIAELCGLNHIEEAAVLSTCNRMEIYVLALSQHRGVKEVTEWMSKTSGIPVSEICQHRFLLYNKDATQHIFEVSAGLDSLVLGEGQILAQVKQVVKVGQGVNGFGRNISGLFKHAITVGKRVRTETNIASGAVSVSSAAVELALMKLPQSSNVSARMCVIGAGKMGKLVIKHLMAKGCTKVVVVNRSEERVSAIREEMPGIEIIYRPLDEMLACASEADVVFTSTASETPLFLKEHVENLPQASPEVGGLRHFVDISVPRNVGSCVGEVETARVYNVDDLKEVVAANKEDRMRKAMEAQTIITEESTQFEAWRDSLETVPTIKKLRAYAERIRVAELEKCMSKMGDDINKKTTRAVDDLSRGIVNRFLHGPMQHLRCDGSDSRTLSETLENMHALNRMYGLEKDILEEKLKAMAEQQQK
The experiment in a line: MST; 200 nM labeled 6xHIS-GBP-FLUO constant, 6xHIS-GluTR1 titrated from 7.5 µM, PBS, Monolith NT.115; Kd from initial fluorescence quenching; no hemin; n = 2.

The target in assay [2] is T1, 6xHIS-GluTR1 (glutamyl-tRNA reductase 1). The experiment in a line: MST; as a3 with addition of 1 µM hemin.
In assay [3] the target is T2, 6xHIS-GluTR1-FLUO (fluorophore-labeled 6xHIS-GluTR1) (Arabidopsis, UniProt P42804 62-543, fluorophore from the RED-NHS (Amine Reactive) protein labeling kit (second generation)).
T2 construct: glutamyl-tRNA reductase 1 (GluTR1), Arabidopsis, encoded by HEMA1; same construct as m1, labeled; m1 after amine-reactive labelling; also called labeled HIS-GluTR; source: E. coli BL21, purified (Ni-NTA), labeled with the RED-NHS protein labeling kit
T2 sequence (looked up): T1 sequence (looked up)
The experiment in a line: MST; 200 nM labeled 6xHIS-GluTR1-FLUO constant, 6xHIS-GBP titrated from 7.5 µM, PBS, Monolith NT.115; MST signal 1.5 s after turning on the laser; no hemin; n = 2.

Assay [4] addresses T2, 6xHIS-GluTR1-FLUO (fluorophore-labeled …). The experiment in a line: MST; as a5 with addition of 1 µM hemin.

B1: 6xHIS-GBP-FLUO (fluorophore-labeled 6xHIS-GBP) (natural protein, Arabidopsis, UniProt Q9LU39 43-317, looked up)
chain: SVSTTLDTPATASTHKPFPAEVSRSIMELSSVGTLSTLTHDGWPLGVGVRFAVDKDGTPVLCLNRSVSPDKRSALHVQLEQCGLRTPQCTIQGSIGRPGDDTVLKRLSATWREKFGEEVKEDSLYVVAVDRVLQMEDFMEDGIWVASSDYKNASPDPLRDIAEDIVNQINANNMEDIFRFCNVYVDLDFVVSETKMIWMDRLGFDLRVWSPRGVYDVRIPFPMEVTDEKGAKSSFNGMSQLAWEVEKSYCPADFNKVKLLKQVVGSSHSHKGGGQ
modifications: fluorophore from the RED-NHS (Amine Reactive) protein labeling kit (second generation)
notes: same construct as m3, labeled; m3 after amine-reactive labelling; also called labeled HIS-GBP; labeled GBP; source: E. coli BL21, purified (Ni-NTA), labeled with the RED-NHS protein labeling kit
For the molecule B1, the results for the Kd in assay [1] and in assay [2] were 65 nM and 931 nM, respectively.

B2: 6xHIS-GBP (GluTR-binding protein) (natural protein, Arabidopsis, UniProt Q9LU39 43-317, looked up)
chain: B1 chain
notes: Czarnecki et al., 2011; Wang et al., 2018; probably without the transit peptide; source: E. coli BL21, purified (Ni-NTA)
B2: the dissociation constant Kd is 113 nM in assay [3] and 806 nM in assay [4].

By Kd is commonly meant the constant that tells how readily two partners part at equilibrium. Low values mean higher affinity, high ones lower affinity.
